Source: patent US20250382376A1 (FUDAN UNIVERSITY, published 2025)

Target: T1, CD73 on the surface of human cells (human, UniProt P21589 27-549)
T1 construct: whole, on cells; The cell line of each value is named under assay or readout; also called CD73 on the surface of tumor cells; CD73 enzyme on the surface of MDA-MB-231 cells
T1 sequence (looked up): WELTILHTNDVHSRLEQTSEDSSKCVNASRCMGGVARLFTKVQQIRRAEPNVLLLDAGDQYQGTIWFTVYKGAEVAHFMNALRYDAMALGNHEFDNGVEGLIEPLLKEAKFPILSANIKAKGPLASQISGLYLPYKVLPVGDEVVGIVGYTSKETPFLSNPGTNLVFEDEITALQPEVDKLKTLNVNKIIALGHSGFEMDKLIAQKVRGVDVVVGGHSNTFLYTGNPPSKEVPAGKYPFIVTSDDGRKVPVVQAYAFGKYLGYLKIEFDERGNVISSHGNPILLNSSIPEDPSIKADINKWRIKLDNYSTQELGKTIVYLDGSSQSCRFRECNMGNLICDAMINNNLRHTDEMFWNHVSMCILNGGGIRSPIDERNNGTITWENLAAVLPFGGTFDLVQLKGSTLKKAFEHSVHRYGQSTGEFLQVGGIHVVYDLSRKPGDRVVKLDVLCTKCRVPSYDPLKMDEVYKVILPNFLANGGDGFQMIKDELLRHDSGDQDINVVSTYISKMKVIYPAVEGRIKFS
Assay: Flow cytometry on NCI-H1299 cells
Procedure: 100 μL of the test antibodies diluted from 10 μg/mL to 0.016 μg/mL in a 5-fold gradient were used as the primary antibodies, and were mixed with 1×10⁵ tumor cells suspended in 100 μL RPMI-1640 serum-free medium to make a final concentration of 5 μg/mL diluted to 0.008 μg/mL, and then incubated at 4° C. for 1 h. The cells were washed twice with PBS to remove unbound primary antibodies, and then the target cells were incubated with 200 μLPE-labeled secondary antibody at 2 μg/mL at 4° C. for 30 min. The cells were washed twice with PBS to remove unbound secondary antibodies, and finally the cells were resuspended in 200 μL PBS. The binding affinity of the test antibodies to CD73 on the surface of the corresponding cells was measured by flow cytometry.
The binding affinity of the humanized antibodies to NCI-H1299 cells was detected according to the method for determining the binding affinity of CD73 on the surface of tumor cells in Example 5.

B1: chimeric nanobody 3-D7 (Fc fusion)
VHH: QRQLVESGGGLVQPGGSLRLSCAASGFLLDYYVIGWFRQAPGKEREGVSCISGSDRSTYYADSVKGRFTISRDNAKNTVYLQMNSLKPEDTAVYFCAADPSPVTVQAMCLPRFPVPYWGQGTQVTVST
notes: Human-alpaca chimeric antibody (VHH on hIgG1 Fc); Only the VHH is tied to the tested molecule; 37-39 exist for 3-D7-FC1/FC2/FC3; also called original antibody 3-D7
For B1, the “Max MFI” value was 105000 MFI.
